This data set addresses T1, SERF2 (Homo sapiens) (UniProt P84101).
T1 sequence: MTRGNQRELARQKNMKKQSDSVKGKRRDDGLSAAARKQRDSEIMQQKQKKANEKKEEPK
The data set can be described thus: fluorescence polarization. Particulars: FP: 20 mM NaPi pH 7.4, 100 mM KCl, 25 C (20-100 nM FAM-RNA or 200 nM AF488-SERF2); NMR: same buffer, 4 C.

For TERRA60 rG4, the Kd (in general, a measure of binding affinity in units of concentration) is under 1000 nM.

Substance polyG RNA yielded a Kd of under 1000 nM.

For the origin of these results see article doi:10.1101/2023.10.09.561572.
